“Also recorded” adds a separate entry of the source.

Common to all, as to format: cell-based
One experiment has as its system mTOR. Kind of experiment: Phospho-S2448 mTOR ELISA in primary human AML cells. Particulars: AML-PB001F cells; for mTOR activation: 24 h. On the procedure: Phosphorylation of mTOR was monitored using ELISA assays as recently described (Yasinska I. M. et al (supra); Abooali M. et al (2014) Sci. Rep. 4 6307; Prokhorov A. et al (supra)). Briefly, ELISA plates were coated with mouse anti-mTOR antibodies and blocked with 2% BSA. Cell lysates were then added to the wells and kept at room temperature for at least 2 h (under constant agitation). After extensive washing with TBST buffer (Tris-Buffered Saline and Tween 20), […] mTOR antibody was added and plates were incubated for at least 2 h at room temperature with constant agitation. Plates were then washed with TBST buffer and incubated with 1:1000 Horse Radish Peroxidase-labelled goat anti-rabbit IgG in TBST buffer. After extensive washing with TBST, bound secondary antibodies were then detected by the peroxidase reaction (ortho-phenylenediamine/H2O2).
(§1) Primary human AML mononuclear cells (AML-PB001 F, newly diagnosed/untreated) were purchased from AllCells (Alameda, Calif., USA) and handled in accordance with manufacturer's instructions.
(§2) Experiments were carried out to ascertain whether or not LPHN 1 and LPHN 2 are expressed and function in primary human AML cells. AML-PB001 F primary human mononuclear blasts were used and exposed for 24 h to 1 μg/ml LPS, 500 pM LTX or a combination of these ligands.
(§3) To analyse LPHN1/2 expression levels in AML-PB001F cells, the cells were exposed to mTOR activators (1 μg/ml LPS, 0.1 μg/ml SCF or 2 μg/ml anti-Tim-3 antibody) for 4 h.
(In general: An ELISA detects its analyte on a solid surface through an enzyme-linked reagent.)

Experiment [1] has as its system AML-PB001F primary human AML cells. As to the kind of experiment: LPHN1/2 protein levels by Western blot in primary human AML cells. The settings on record: 4 h, 1 μg/ml LPS, 0.1 μg/ml SCF or 2 μg/ml anti-Tim-3 antibody. On the procedure:
Levels of LPHN 1 and LPHN 2, total and phospho-T389 p70 S6K1 were determined by Western blot analysis and compared to β-actin in order to determine equal protein loading, as described by Yasinska I. M. et al (Cell. Mol. Life Sci. (2014) 71 699-710). Li-Cor goat secondary antibodies, conjugated with fluorescent dyes, were used according to the manufacturer's protocol to visualise the proteins of interest using a Li-Cor Odyssey imaging system. Western blot data were analysed quantitatively using Odyssey software and values were normalised against respective β-actin bands.
as §1, §3
(Immunoblotting shows a protein as a band on a membrane.)

The subject of experiment [2] is primary healthy human leukocytes. As to the kind of experiment: Latrophilin protein expression by Western blot in primary healthy human leukocytes. Particulars: primary leucocytes from healthy donors, 4 or 24 h exposure. On the procedure:
Primary AML-PB001F cells were exposed for 4 h (A) and healthy human leukocytes for 4 h (B) or 24 h (C) to indicated concentrations of LPS, SCF and anti-Tim-3. Following cell lysis, latrophilin protein levels were analysed by Western blot. Phospho-S2448 mTOR was measured by ELISA. Furthermore, non-treated THP-1 cells, primary human AML cells and primary healthy human leukocytes, as well as those stimulated for 24 h with 1 μg/ml LPS were subjected to quantitative real time polymerase chain reaction qRT-PCR (D). Images show one representative result of at least four experiments, which gave similar results. Data are mean values±SD (n=4). *-p<0.05; **-p<0.01.
Levels of LPHN 1 and LPHN 2, total and phospho-T389 p70 S6K1 were determined by Western blot analysis and compared to β-actin in order to determine equal protein loading, as described by Yasinska I. M. et al (Cell. Mol. Life Sci. (2014) 71 699-710). Li-Cor goat secondary antibodies, conjugated with fluorescent dyes, were used according to the manufacturer's protocol to visualise the proteins of interest using a Li-Cor Odyssey imaging system. Western blot data were analysed quantitatively using Odyssey software and values were normalised against respective β-actin bands. […]

Experiment [3] concerns AML-PB001F primary human AML cells. Kind of experiment: IL-6 release by ELISA in primary human AML cells. The settings on record: 24 h. On the procedure: (§4) Concentrations of IL-6 released into the cell culture media were analysed by ELISA (R&D Systems assay kit) according to the manufacturers protocol.
as §1, §2

For another experiment, the system named is U937 human AML cells. Kind of experiment: IL-6 release by ELISA in U937 cells. Particulars: 24 h, 500 pM LTX in combination with 1 μg/ml LPS. On the procedure:
(§5) THP-1 and U937 human leukaemia monocytic macrophages were obtained from the European Collection of Cell Cultures (Salisbury, UK). Cells were cultured in RPMI 1640 media supplemented with 10% foetal calf serum, penicillin (50 IU/ml) and streptomycin sulphate (50 μg/ml).
as §4
(§6) Expression of LPHN 1 and LPHN 2 in human AML cell lines—U937 and THP-1—was investigated. Cells were stimulated for 24 h with 1 μg/ml LPS, 500 pM LTX or a combination of these ligands. LPS is a pathogen-associated molecular pattern shared by Gram-negative bacteria and is recognised by the Toll-like receptor 4 (TLR4), which is highly expressed by human myeloid cells. Importantly, LPS was chosen because TLR4 may be targeted by endogenous ligands (like proteins released by dysfunctional mitochondria) to promote expression/release of IL-6 and other important cytokines/growth factors required for leukaemia cell survival.

A further experiment has as its system THP-1 human AML cells. Kind of experiment: IL-6 release by ELISA in THP-1 cells. Particulars: 24 h, 500 pM LTX in combination with 1 μg/ml LPS. On the procedure:
as §5, §4, §6

Where [4] appears, read: 500 pM LTX in combination with 1 μg/ml LPS.
Where [5] appears, read: 1 μg/ml LPS alone or 500 pM LTX alone.

As to “SCF: Human Stem Cell Factor protein produced in E. coli; binds Kit (CD117)”, in the experiment with mTOR (4 h, 1 μg/ml LPS, 0.1 μg/ml SCF or 2 μg/ml anti-Tim-3 antibody), the “phosphorylation of S2448 in mTOR (mTOR activation)” value is recorded as “significantly increased; also recorded: strongest effect”. In experiment [1], the LPHN1/2 expression entry is “significantly up-regulated” and the LPHN2 expression result is on record as “significantly up-regulated”. The latrophilin expression result in experiment [2] was “not inducible”.

B1: LTX (protein)
chain: EGEDLTLEEKAEICSELELQQKYVDIASNIIGDLSSLPIAGKIAGTIAAAAMTATHVASGRLDIEQTLLGCSDLPFDQIKEVLENRFNEIDRKLDSHSAALEEITKLVEKSISVVEKTRKQMNKRFDEVMKSIQDAKVSPIISKINNFARYFDTEKERIRGLKLNDYILKLEEPNGILLHFKESRTPTDDSLQAPLFSIIEEGYAVPKSIDDELAFKVLYALLYGTQTYVSVMFFLLEQYSFLANHYYEKGYLEKYDEYFNSLNNVFLDFKSSLVGTGTSNNEGLLDRVLQVLMTVKNSEFLGLEKNGVDEMLNEKINLFNKIKEEIEGKQKMTLSETPENFAQISFDKDITTPIGDWRDGREVRYAVQYASETLFSKISHWSDPVSVREKACPTLRMPVDQTRRNVLVFRKFDSSKPQLVGEITPYLSNFIDIDRDLYNAASNPDSAVGFKEFTKLNYDGANIRATFDHGRTVFHAAAKSGNDKIMFGLTFLAKSTELNQPDKKGYTPIHVAADSGNAGIVNLLIQRGVSINSKTYHFLQTPLHLAAQRGFVTTFQRLMESPEININERDKDGFTPLHYAIRGGERILEAFLNQISIDVNAKSNTGLTPFHLAIIKNDWPVASTLLGSKKVDINAVDENNITALHYAAILGYLETTKQLINLKEINANVVSSPGLLSALHYAILYKHDDVASFLMRSSNVNVNLKALGGITPLHLAVIQGRKQILSLMFDIGVNIEQKTDEKYTPLHLAAMSKYPELIQILLDQGSNFEAKTNSGATPLHLATFKGKSQAALILLNNEVNWRDTDENGQMPIHGAAMTGLLDVAQAIISIDATVVDIEDKNSDTPLNLAAQNSHIDVIKYFIDQGADINTRNKKGLAPLLAFSKKGNLDMVKYLFDKNANVYIADNDGMNFFYYAVQNGHLNIVKYAMSEKDKFEWSNTDNNRRDECPNEECAISHFAVCDAVQFDRIEIVKYFVGTLGNFAICGPLHQAARYGHLDIVKYLVEEEFLSVDGSKTDTPLCYASENGHFTVVQYLVSNGAKVNHDCGNGMTAIDKAITKNHLQVVQFLAANGVDFRRKNSRGTTPFLTAVAENALHIAEYLIREKRQDININEQNVDKDTALHLAVYYKNLQMIKLLIKYGIDVTIRNAYDKTALDIAIDAKFSNIVEYLKTKSGKFRR
As to B1, the mTOR activation result was “significantly up-regulated” in the experiment with mTOR (setting [4]) and “did not influence” with mTOR (setting [5]). The IL-6 exocytosis entry in experiment [3] (setting [4]) is listed as “significantly up-regulated”. The IL-6 release entry in experiment [3] (setting [5]) was “did not influence”. The “LPS-induced IL-6 exocytosis” value in the experiment with U937 human AML cells and in the experiment with THP-1 human AML cells was “highly up-regulated” each time.

The values above are taken from patent US20220042996A1, “COMPOSITIONS AND METHODS RELATED TO LATROPHILINS AS BIOMARKERS FOR HAEMATOPOIETIC CELL CANCER” (priority 2015, published 2022).
